# How the values were obtained:
# [1] = molecular target: T1, recombinant human CFP HIS-tagged (human, UniProt P27918 28-469); experiment: flow cytometry; CFP-HIS on cells
# T1 construct: Secreted from CHO cells, purified on Ni-NTA and by size exclusion; also called huCFP-HIS; HuCFP-HIS; not shown: HIS tag inserted through the reverse primer (C-terminal)
# [2] = molecular target: T1, recombinant human CFP HIS-tagged; experiment: flow cytometry; CFP-HIS on enriched mouse NK cells
# T1 sequence (P27918 28-469): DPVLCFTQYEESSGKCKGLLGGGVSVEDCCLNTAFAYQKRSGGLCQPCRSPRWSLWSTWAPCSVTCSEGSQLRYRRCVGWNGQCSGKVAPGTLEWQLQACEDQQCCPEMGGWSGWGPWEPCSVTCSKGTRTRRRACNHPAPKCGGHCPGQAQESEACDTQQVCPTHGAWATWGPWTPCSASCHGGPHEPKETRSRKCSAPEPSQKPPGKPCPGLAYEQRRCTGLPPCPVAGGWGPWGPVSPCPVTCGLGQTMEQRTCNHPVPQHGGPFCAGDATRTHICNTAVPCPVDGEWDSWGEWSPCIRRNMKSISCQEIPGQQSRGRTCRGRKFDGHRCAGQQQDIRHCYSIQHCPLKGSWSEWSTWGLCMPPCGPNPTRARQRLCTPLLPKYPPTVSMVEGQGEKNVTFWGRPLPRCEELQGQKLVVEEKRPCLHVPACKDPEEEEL
binding result [1],binding result [2],Binder
no binding (tested: 10ug/ml),–,"NKp30 on DOMsp30 cells (receptor, UniProt O14931 19-135, looked up, also called DOMsP cells expressing NKp30) LWVSQPPEIRTLEGSSAFLPCSFNASQGRLAIGSVTWFRDEVVPGKEVRNGTPEFRGRLAPLASSRFLHDHQAELHIRDVRGHDASIYVCRVEVLGLGVGTGNGTRLVVEKEHPQLG"
–,binds,"mouse NKp46 on Ncr1 WT/WT enriched mouse NK cells (receptor, UniProt Q8C567 17-325, looked up, whole, on cells; also called Ncr1 WT/WT NK cells) QRINTEKETLPKPIIWAKPSIMVTNGNSVNIWCQGAQSASEYQLYFEGSFFALERPKPSRSMNKVRFFISQMTSHTAGIYTCFYQSGELWSKSSNPLKLVVTGLYDTPNLWVYPRPEVTLGENVTFFCQLKTATSKFFLLKERGSNHIQNKYGNIQAEFPMGPVTRAHRGTYRCFGSYNDYAWSFPSEPVTLLITGGVENSSLAPTDPTSSLDYWEFDLSTNESGLQKDSAFWDHTTQNLIRIGLACIILITLVWLLTEDWLSKRKDHEEANRLTNWECRRRWRMQHYFEEEQRNAISMMELKATPGAL"

# Source: WO2018083080A2 (dated 2018)
